Reference: the DeepSol protein solubility set

Assay: soluble on expression in E. coli; label from the status in PepcDB or PDB records
For “MGSDKIHHHHHHMNQIDRLLTIMQRLRDPENGCPWDKEQTFATIAPYTLEETYEVLDAIAREDFDDLRGELGDLLFQVVFYAQMAQEEGRFDFNDICAAISDKLERRHPHVFADSSAENSSEVLARWEQIKTEERAQKAQHSALDDIPRSLPALMRAQKIQKRCANVGFDWTTLGPVVDKVYEEIDEVMYEARQAVVDQAKLEEEMGDLLFATVNLARHLGTKAEIALQKANEKFERRFREVERIVAARGLEMTGVDLETMEEVWQQVKRQEIDL”, the “soluble on expression in E. coli” value was “not soluble”.
With “MGSDKIHHHHHHMNQVTTYLWETHLPGGSHWSGVVRRGTTLRLTDVSGGANAAVLFYNLEEKLERYNMADTLKTQHTFCLTKGHACHSDMGRIFCCITEDTAGWHDTVCGLSDAELIQQKYGTGRYQELRNDMYRNGLDGMLVELGKWGLGRRDVVSNINFFSKVTANSVGELQFHVSHSKAGDHVDLAFAMDTLVVLSAAPHPLDPAATYRPGAVNLAVFPSTPAVTGACAHIAENARGLENTRRLYAYGGVK” the “soluble on expression in E. coli” value was “not soluble”.
For “MGSDKIHHHHHHMNRLKKLAWGELFMLGKQGKVRYVFTSSNTAGGYCSFMPELLAGLQKIFILKGPAGTGKSSFLRLLGQSMAEQGYEVEVWLSALNPLNPEGIYLPQMEAAVVNGSLPITIDPGYPAGRAEIINLEDYRDRKAAAEKGRDILELVQRVEKHHSKAYNILKSVIQTREELRQLSARHLDNSKFNQIFQELEARLAEEEVRERHYFANAVTADGIISYIEELSTPCRKRYIFKGPEGCGKSTMIAELARKAAEKGQFLEYYHSGLEPERLLMVIISSSQTALIDIGEMEINLKPCDLLVDLGKCLSDYDCSLLGMKNSQVYRNHEAMLLQVQDELENACLAVKKIKKINASFMDYDSIDKKRMEIEQELGSELSKCFCNGIESGL”, the “soluble on expression in E. coli” value was “not soluble”.
In the case of “MGSDKIHHHHHHMNRMNDALELVKKLRTFLPAESVLHETEDVRPYECDGLSAYRQTPMIVALPRTEDEVAGILKICDALKIPVVARGAGTGLSGGALPHPQGVLLSLAKLKNILEIDPAARTARVQPGVRNLAISEAAAPYGLYYAPDPSSQIACSIGGNVAENSGGVHCLKYGLTVHNILKLRVLTIEGELLEMGADGLDAPGYDLLALMTGSEGMLGIVTEVTVKLTPRPEKAQVVLASFDDIRDAGNAVANVIGAGIIPAGMEMMDKITTGAVEEYVHAGYNVEAAAILLCESDGAEEEVAEEIERINEIMRQSGATEVRISRDEAERARFWAGRKAAFPAAGRVSPDYYCMDGTIPRKNLASVLTGIEALSAEYGLRCMNVFHAGDGNLHPLILYDANHPGELELTEEFGAKILRMCIEAGGTITGEHGVGIEKINQMCSQFKTGELEMFHAVKAAFDPASLLNPGKAIPTLRRCAEQGAMHVHRGKEKFPELPRF”, the “soluble on expression in E. coli” value is reported as “not soluble”.
In the case of “MGSDKIHHHHHHMNRVISVGFEHPKSYLDSNQSVEAKSRIDSYIDKKMDEWNKEVVYAKHLYEPSVNKEYYKRHMIEHVWRIRMSRTVQAKALHQIAKISPEAAQLYARYQDEEMLHDILFKQDALALGVTEDTIKNTEPMFATRLLMGFKYFVAEHENPLGAVAYSYLVEYVTAKITPDQVSNLKSELGSENIKGQVAHINTDLSHDHSGDMWEIVRALLFTESDIEMFIKYIDEIQDLLAMYFKELYEKTIAKNESQAA”, the “soluble on expression in E. coli” value is reported as “not soluble”.
For “MGSDKIHHHHHHMNSFLDSVCALLEQGEDVVIVTIAMQSGSTPRESGAKMAVRRDGSILGTVGGGLMEAGCMELGREMLTGRFASSAAESGPELAVIRHFDLSNEEAAKAAMVCGGRLTVVAEHIQAGRRGAEVLCAARDSLLQGKACGLETTMERLEHTAAATREACFAVTGRKTPDCGHAAPAAASATLDCDGKTCRFTEWLQPSPRMIIFGAGHVALPTAAMASMTGFAVTVLDDREEFASPQRFPQARTVVLPDFGQAFAQLTITPQCYVVIMTRGHLHDKTVLEQALKTPACYVGMIGSRRKRDALYDQLRSEGVDESSIARCHCPIGLEIGARTPEEIAVSIMAEIIACRAAGNGDGAS”, the “soluble on expression in E. coli” value was “not soluble”.
For “MGSDKIHHHHHHMNTANPEQALAMSQAKLLCDTMSTLAESPVWDERRQVLFWCDILGKTVRSAALEPGQYREWPFPHTVSSLGLRENGDLVVACGMDIVILDPDSGRTRLLHSIPAPEGIPCRLNDGRVGPDGAFWVGTMHNVPLSEMKPYGELWRITATSAKRMQTGLTCPNGLAFSPDGSIMWQSDSVQKWIRRRNFYRVNGLFDEGVLVAQMTEETGRPDGGCLDSSGTYYSAGVSAGMLNVFAEDGGKQTAAIKMPVPHPTMPCFGGPDFSTLFVTSHRHNMSAERLEQAPFSGGVWMIPTQTKGFAPFRFEG”, the “soluble on expression in E. coli” value was “not soluble”.
With “MGSDKIHHHHHHMNTDDILFSYGEEDIPLKALSFPIFETTNFYFDSFDEMSKALRNGDYEFVYKRGSNPTTRLVEKKLAALEECEDARLVASGMSAISLSILHFLSSGDHVVCVDEAYSWAKKFFNYLSKKFDIEVSYVPPDAERIVEAITKKTKLIYLESPTSMRMKVIDIRKVTEAAGELKIKTVIDNTWASPIFQKPKLLGVDVVVHSATKYISGHGDVMAGVIAGDVEDMKNIFVDEYKNIGPVLSPIEAWLILRGLRTLELRMKKHYENALVVSDFLMDHPKVLEVNYPMNPRSPQYELASSQMSGGSGLMSFRLKTDSAEKVKEFVESLRVFRMAVSWGSHENLVVPRVAYGDCPKKDVNLIRIHVGLGDPEKLVEDLDQALKKI” the “soluble on expression in E. coli” value was “not soluble”.
In the case of “MGSDKIHHHHHHMNTIYNTLRTDKGYKVYEGYLYEITGEECEEALDLVIPKNIVFADTDTCGYTFLLNEDGTVYDDVTFYKFDDKYWLASHKALDSYLDNINFDYTVTDISDEYKMLQIEGRYSGEIAQSFYEYDISTLNFRTLIEMTYKGEKGYLARFGFSGEFGYQFFLPSSIFATFVSDVCEGIAEYGDELDRYLRFEVGQPITDIYQQEEYSLYEIGYSWNLDFTKEEFRGRDSLLEHIRSATVKSVGFSTKEKLASGTPVLFDDQIVGKIFWIADEKDSSENYLGLMIVNQTYAHSGVTFVTEDGQILKTQSSPYCIPESWNKE”, the “soluble on expression in E. coli” value is reported as “not soluble”.
With “MGSDKIHHHHHHMNTLVDAGFSPRREGFAPQPLIEALLSILPAHCVLHREEDTRPYECDGLSLYRALPAVVALPEDEAQVRAIMQLCKRMNVPIVARGAGTGLSGGAMPHAQGVLLGLSKLNRIKRIDPAGGTAVVEPGVRNLAISEAAAPYGLYYAPDPSSQIACSIGGNVAENSGGVHCLKYGLTVHNVLRVRVVTIDGEIVELGSEAPDAPGLDLLSVFVGSEGMLGVVTEITVKLIPSPACAQVVMASFASVEAAGNAVTQIIAAGLIPAGLEMMDRQAVHMVEPFVQAGYDLQAQAILLCEADGTPQEVAHEVAMMEAVFKRAGATSLQVSGSEAERLRFWAGRKNAFPAAGRVSPDYYCMDGTIPRRHLARVLGAIEQMEDDFGLRCANVFHAGDGNLHPLILFDSNKPDEVERAEKFGAAILELCVQVGGTVTGEHGVGMEKINQMCVQFSRDELDAFLAVKRAFDPPGLLNPEKVIPTLARCAEYGKMHVHAGEMRFPDLARF” the “soluble on expression in E. coli” value was “not soluble”.
In the case of “MGSDKIHHHHHHMNTNQLIEAFRKFLPAEAILHEAEDLRPYECDALSAYRQLPMIVVLPRTEAEIAAILQTCQAERIPVVARGSGTGLSGGALPHAEGVLLSLARLNHILEIDPAAGTARVQPGVRNLAISEAAAYYGMYYAPDPSSQIACSIGGNVAENSGGVHCLKYGLTVHNILRLRVLTIEGDLLEIGADALDSPGFDLLALMTGSEGMLGIVTEITVRLLPKPETVKLVMAVFDDVRKAGEAVASVIQAGIIPAGMEMMDKITIHAVEDFVHAGYDLEGAAILLCESDGMAEEVADEIERIRTILQASGATRISLAQDEAERQRFWAGRKAAFPAAGRVSPDYYCMDGTIPRKHLAHVLEQIEQLSAEYGLRCMNVFHAGDGNLHPLILYDANQPGELQKAEAFGARILEICIEAGGSLTGEHGVGIEKLNQMCLQFNDAERNRFHAIKAAFDPQSLLNPGKAIPELHRCAEFGAMHIHRGAEKFPEIPRF”, the “soluble on expression in E. coli” value is reported as “not soluble”.
For “MGSDKIHHHHHHMNTSGDRLRILLRECHLTATDFAANRKITPQHVNNWFKRGVPMARIDEVAELLTVNARWLRSGDGPKHPNESANENTGDDKRMAIQQTRNVLRGDVEIQIYMEVESPHGVGKTVLSEAPGQKIRLPLQVLQTMGIDPKNCMCVAMVGNSMADKIQDGSILGVDRELTQVIDGEIYALEHGGILRVRYLYRLPNGGLRLRSHNDAEYPDEVFSGEDIAREKIRILGWIFWWSTLNSRRNAMLLL”, the “soluble on expression in E. coli” value was “not soluble”.
